Key:
[1] = biological target: T1, Myostatin (R&D Systems, Catalogue number 788-G8-010/CF) (UniProt O14793); test: BIAcore SPR; fusion captured on anti-human Fc; myostatin as analyte (5-0.31 nM)
T1 sequence (looked up): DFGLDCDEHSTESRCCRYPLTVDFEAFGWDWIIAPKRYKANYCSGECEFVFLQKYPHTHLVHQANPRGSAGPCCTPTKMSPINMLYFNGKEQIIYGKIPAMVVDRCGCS

FcRn receptor = test: FcRn binding, 'standard methods'
[2] = biological target: T1, Myostatin (R&D Systems, Catalogue number 788-G8-010/CF); test: cell-based or functional assay
[3] = biological target: Activin A (R&D Systems, Catalog number 338-AC-050 CF) (UniProt P08476); test: BIAcore SPR; fusion captured on anti-human Fc; activin A as analyte (2.5-0.15 nM); upper end of the printed range 1-2 pM; fusion captured on anti-human Fc, activin A tested 2.5-0.15 nM
[4] = biological target: Activin A (R&D Systems, Catalog number 338-AC-050 CF) (UniProt P08476); test: BIAcore SPR; fusion captured on anti-human Fc; activin A as analyte (2.5-0.15 nM); lower end of the printed range 1-2 pM; fusion captured on anti-human Fc, activin A tested 2.5-0.15 nM
[5] = biological target: Fc Gamma Receptor RIA (R&D Systems, Catalog #1257-FC-050) (UniProt P12314); test: SPR; fusion immobilised on CM5 chip; Fc gamma receptor IA as analyte (62.5-0.49 nM)
[6] = biological target: Activin A (R&D Systems, Catalog number 338-AC-050 CF) (UniProt P08476); test: cell-based or functional assay

Chain of Activin A (R&D Systems, Catalog number 338-AC-050 CF) (P08476 311-426): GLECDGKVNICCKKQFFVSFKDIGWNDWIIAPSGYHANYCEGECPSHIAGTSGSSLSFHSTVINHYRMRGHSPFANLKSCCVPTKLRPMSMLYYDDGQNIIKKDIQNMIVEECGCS
Chain of monoFS315K(76,81,82)E-hFcLALA (Fc fusion) (chain): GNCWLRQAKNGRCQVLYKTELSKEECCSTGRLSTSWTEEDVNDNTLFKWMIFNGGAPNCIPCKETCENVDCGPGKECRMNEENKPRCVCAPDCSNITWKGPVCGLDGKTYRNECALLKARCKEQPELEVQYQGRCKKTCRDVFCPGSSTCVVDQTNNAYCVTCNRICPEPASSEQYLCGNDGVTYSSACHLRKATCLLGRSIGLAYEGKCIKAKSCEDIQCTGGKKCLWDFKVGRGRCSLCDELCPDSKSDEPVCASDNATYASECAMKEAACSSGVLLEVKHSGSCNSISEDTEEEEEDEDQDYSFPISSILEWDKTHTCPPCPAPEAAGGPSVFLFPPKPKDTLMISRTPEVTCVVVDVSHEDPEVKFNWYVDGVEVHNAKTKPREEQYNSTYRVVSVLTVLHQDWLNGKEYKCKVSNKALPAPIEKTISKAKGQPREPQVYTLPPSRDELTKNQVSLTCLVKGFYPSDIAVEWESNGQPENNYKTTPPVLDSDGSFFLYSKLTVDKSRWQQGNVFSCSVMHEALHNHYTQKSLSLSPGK
Chain of Fc Gamma Receptor RIA (R&D Systems, Catalog #1257-FC-050) (P12314 16-288 limits assumed): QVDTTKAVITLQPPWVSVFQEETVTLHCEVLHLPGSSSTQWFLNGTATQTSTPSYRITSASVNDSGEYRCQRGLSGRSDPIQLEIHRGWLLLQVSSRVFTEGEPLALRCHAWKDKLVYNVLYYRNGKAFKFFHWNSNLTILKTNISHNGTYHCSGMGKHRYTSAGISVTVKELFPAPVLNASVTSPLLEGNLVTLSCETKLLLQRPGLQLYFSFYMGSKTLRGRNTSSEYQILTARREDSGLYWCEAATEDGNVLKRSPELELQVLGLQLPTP

Substance	Kd [1]	Kd (FcRn receptor)	Myostatin IC50 (nM), luciferase gene reporter assay (Smad3, A204 cells) [2]	Kd [3]	Kd [4]	Kd [5]	Activin A IC50 (nM), luciferase gene reporter assay (Smad3, A204 cells) [6]
monoFS315wt-hFcLALA (Fc fusion)	0.00289 nM	12.8 nM	–	–	–	–	–
monoFS315K(76,81,82)E-hFcLALA (Fc fusion)	< 0.004 nM	40.6 nM	–	–	–	–	–
FS315ΔHBS-hFcLALA (Fc fusion)	–	–	0.4 nM	–	–	–	–
FS315WT-hFc (from UniProt P19883 30-344) (Fc fusion)	0.006 to 0.01 nM	114 nM	0.4 nM	0.001 to 0.002 nM	0.001 to 0.002 nM	0.14 nM	0.7 nM
FS315K(81,82,84)E-hFcLALA (Fc fusion)	–	–	0.4 nM	–	–	–	1 nM

— patent US20200247856A1
